Data published in patent publication US7220576B2, “Methods and compositions for protein expression and purification” (Lifesensors, Inc., priority 2002, dated 2007).
Entries after “also recorded” stand apart in the source; their conditions may differ.

Columns and labels:
[1] = test system: E. coli; assay: Soluble versus insoluble fraction of fusion proteins expressed in E. coli; assay type: cell-based
Protocol: E. coli were harvested by mild centrifugation and washed once with PBS buffer. Cells were resuspended in 4 ml of PBS and ruptured by several pulses of sonication. Unbroken cells were removed by mild centrifugation (5 min at 1500×g) and supernatants were sonicated again to ensure complete cell lysis. An aliquot (5 μl) was mixed with 2% SDS to ensure that no viscosity is detected owing to lysis of unbroken cells. After ensuring that no unbroken cells remained in the lysate, insoluble material consisting of cell walls, inclusion bodies and membrane fragments was sedimented by centrifugation (18,000×g for 10 min). The supernatant was considered “Soluble fraction”.
The pellets were washed from any remaining soluble proteins, lipids and peptidoglycan as follows. Pellets were resuspended in 600 μl of PBS and to the suspensions 600 μl of solution containing 3 M urea and 1% Tri ton X100 was added. The suspension was briefly vortexed and insoluble material was collected by centrifugation as above. The PBS/Urea/Triton wash was repeated two more times to ensure complete removal of soluble proteins. The washed pellets, designated as “insoluble fraction,” consisted primarily of inclusion bodies formed by over expressed proteins. Approximately 10 μg of protein from each fraction was resolved on 12% SDS-PAGE minigels and stained with Coomassie Brilliant Blue.
Human nuclear receptor proteins, such as steroid receptors, contain ligand-binding domains. These proteins have proven hard to express in soluble form in E. coli. […] The ligand-binding domain of LXR was expressed as SUMO fusion in Rosetta plysS cell at 20° C. or 37° C. and the pattern of soluble and insoluble protein was analyzed. […] Further proof that SUMO promotes solubility of previously insoluble proteins was gained by expressing MAPKAP2 kinase as a SUMO-fusion in E. coli. […] Numbers at the top of the gel, 0.1, 0.25 and 0.5 refer to the mM concentration of inducer IPTG, in the culture. The original induced culture (I), supernatant from lysed cells (S) and resuspended pellet (P) were analyzed on 12% SDS-PAGE. […] Although induction at 37° C. allows greater degree of expression, more than 50% of the kinase is still insoluble under these conditions. Cleavage of SUMO-MAPKKAP2 kinase by SUMO hydrolase is described in Example III. Also see FIG. 18.

[2] = target: T1, Ulp1 Hydrolase (Saccharomyces cerevisiae, UniProt Q02724); assay: In vitro Ulp1 cleavage of His6SUMO-GFP under various additives/conditions; assay type: biochemical, yeast; conditions: 4 to 37° C.
T1 construct: C-terminal His-tagged SUMO hydrolase/protease Ulp (403–621)p (21) (27) was expressed from pET24d; His tag (C); made in house; host or cells: E. coli Rosetta (DE3) pLysS, vector pET24d
T1 sequence (Q02724 403-621): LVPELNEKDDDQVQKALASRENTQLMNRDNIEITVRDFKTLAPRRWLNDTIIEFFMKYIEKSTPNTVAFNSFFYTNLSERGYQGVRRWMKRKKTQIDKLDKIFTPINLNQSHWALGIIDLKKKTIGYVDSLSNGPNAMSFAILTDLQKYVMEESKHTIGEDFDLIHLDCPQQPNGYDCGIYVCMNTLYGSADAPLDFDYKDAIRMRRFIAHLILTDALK
Protocol: Ni-NTA purified His6SUMO-GFP was incubated with Ulp1 under the indicated conditions for one hour at room temperature unless indicated otherwise. Low molecular weight markers (LMW) are also provided.
Ni-NTA purified His6SUMO-GFP was incubated with Ulp1 and 10 mM of various protease inhibitors for 1 hour at room temperature. Lane markers: Norm is addition of Ulp1 and N-ethymaleimide (NEM) to the substrate at the same time, Pre is the incubation of Ulp1 with NEM prior to the addition of substrate, +Ve is the absence of any inhibitor, −Ve is in the absence of Ulp1, lane 1 is with E-64, lane 2 is with EDTA, lane 3 is with leupeptin, lane 4 is with NEM, lane 5 is with pepstatin, lane 6 is with TLCK. Low molecular weight markers (LMW) are also provided.
The effects of various additives/conditions and temperature upon the in vitro cleavage reaction were determined as follows: His6smt3MeGFP was expressed from pET24d in Rosetta (DE3) pLysS (Novagen). The recombinant protein was purified as before using Ni-NTA agarose (Qiagen) and then buffer exchanged into 20 mM Tris-HCl pH 8.0, 150 mM NaCl and 5 mM β-mercaptoethanol using a PD-10 column (AP Biotech). […]

[3] = target: T2, SUMO hydrolase Ulp1 (Saccharomyces cerevisiae, UniProt Q02724); assay: In vitro cleavage of purified SUMO fusion proteins by SUMO hydrolase Ulp1; assay type: biochemical, yeast; conditions: for In vitro cleavage by Ulp1 / SUMO hydrolase: purified fusion protein from E. coli
T2 construct: C-terminal His-tagged SUMO hydrolase/protease Ulp (403–621)p (21) (27) was expressed from pET24d; His tag (C); made in house; host or cells: E. coli Rosetta (DE3) pLysS, vector pET24d
T2 sequence (Q02724 403-621): T1 sequence (Q02724 403-621)

[4] = test system: E. coli; assay: GFP fluorescence in soluble fractions of E. coli; assay type: cell-based; conditions: 37° C., approx. 0.1 mg soluble protein, Ex 485 nm/Em 510 nm
Protocol: GFP fluorescence was measured in soluble fractions (approx. 0.1 mg of soluble protein in a final volume of 40 μl) using Fluoroscan Accent FL fluorometer (LabSystems) with Excitation 485 nm/Emission 510 nm filter set with the exposure set to 40 sec. The data are presented in Arbitrary Units (AU).
The design and construction of all the UBL E. coli expression vectors has been described above. The DNA sequences, accession numbers of the UBL-GFP fusion proteins, and translation frames are shown FIGS. 25–32. […] Un-fused GFP is generally poorly expressed in E. coli. […] Induced cells were broken by sonication and soluble proteins were analyzed on SDS-polyacrylamide gels. […] To determine if the fusion proteins were folded correctly, we determined the fluorescence properties of proteins in the soluble fraction.

B1: SUMO-LXR: human liver X receptor ligand binding domain as SUMO fusion (SEQ ID NO: 25) (protein)
chain: MGHHHHHHGSDSEVNQEAKPEVKPEVKPETHINLKVSDGSSEIFFKIKKTTPLRRLMEAFAKRQGKEMDSLRFLYDGIRIQADQTPEDLDMEDNDIIEAHREQIGGMSLWLGAPVPDIPPDSAVELWKPGAQDASSQAQGGSSCILREEARMPHSAGGTAGVGLEAAEPTALLTRAEPPSEPTEIRPQKRKKGPAPKMLGNELCSVCGDKASGFHYNVLSCEGCKGFFRRSVIKGAHYICHSGGHCPMDTYMRRKCQECRLRKCRQAGMREECVLSEEQIRLKKLKRQEEEQAHATSLPPRRSSPPQILPQLSPEQLGMIEKLVAAQQQCNRRSFSDRLRVTPWPMAPDPHSREARQQRFAHFTELAIVSVQEIVDFAKQLPGFLQLSREDQIALLKTSAIEVMLLETSRRYNPGSESITFLKDFSYNREDFAKAGLQVEFINPIFEFSRAMNELQLNDAEFALLIAISIFSADRPNVQDQLQVERLQHTYVEALHAYVSIHHPHDRLMFPRMLMKLVSLRTLSSVHSEQVFALRLQDKKLPPLLSEIWDVHE
Fraction of protein solublized by SUMO fusion ([1]; induced at 20° C.): about 40%
Solubility of fusion protein ([1]; induced at 37° C.): hardly any SUMO-LXR was soluble

B2: Ulp1: C-terminal His-tagged yeast SUMO hydrolase/protease Ulp (403–621) expressed in E. coli (protein, UniProt Q02724 403-621, looked up, fragment)
chain: T1 sequence (Q02724 403-621)
modifications: C-terminal His tag
notes: C-terminal His-tagged yeast SUMO hydrolase/protease Ulp (403–621) expressed in E. coli
Effect of temperature on Ulp1 hydrolase activity [2]: extremely active at 37 °C as well as at 4 °C; also recorded: Ulp1 is active over a broad range of temperatures,

B3: β-GUS: SUMO fusion of 65 KDa E. coli β-glucuronidase (SEQ ID NO: 23) (protein)
chain: MGHHHHHHGSDSEVNQEAKPEVKPEVKPETHINLKVSDGSSEIFFKIKKTTPLRRLMEAFAKRQGKEMDSLRFLYDGIRIQADQTPEDLDMEDNDIIEAHREQIGGMEFMLRPVETPTREIKKLDGLWAFSLDRENCGIDQRWWESALQESRAIAVPGSFNDQFADADIRNYAGNVWYQREVFIPKGWAGQRIVLRFDAVTHYGKVWVNNQEVMEHQGGYTPFEADVTPYVIAGKSVRITVCVNNELNWQTIPPGMVITDENGKKKQSYFHDFFNYAGIHRSVMLYTTPNTWVDDITVVTHVAQDCNHASVDWQVVANGDVSVELRDADQQVVATGQGTSGTLQVVNPHLWQPGEGYLYELCVTAKSQTECDIYPLRVGIRSVAVKGQQFLINHKPFYFTGFGRHEDADLRGKGFDNVLMVHDHALMDWIGANSYRTSHYPYAEEMLDWADEHGIVVIDETAAVGFNLSLGIGFEAGNKPKELYSEEAVNGETQQAHLQAIKELIARDKNHPSVVMWSIANEPDTRPQVHGNISPLAEATRKLDPTRPITCVNVMFCDAHTDTISDLFDVLCLNRYYGWYVQSGDLETAEKVLEKELLAWQEKLHQPIIITEYGVDTLAGLHSMYTDMWSEEYQCAWLDMYHRVFDRVSAVVGEQVWNFADFATSQGILRVGGNKKGIFTRDRKPKSAAFLLQKRWTGMNFGEKPQQGGKQ
In vitro cleavage by SUMO hydrolase after addition of urea ([3]; 2M urea, 20 min at room temperature): complete cleavage
In vitro cleavage by Ulp1 / SUMO hydrolase [3]: partially resistant to cleavage

B4: SUMO kinase: MAPKAP2 kinase expressed as a SUMO-fusion in E. coli (SEQ ID NO: 29) (protein)
chain: MGHHHHHHGSDSEVNQEAKPEVKPEVKPETHINLKVSDGSSEIFFKIKKTTPLRRLMEAFAKRQGKEMDSLRFLYDGIRIQADQTPEDLDMEDNDIIEAHREQIGGMQFHVKSGLQIKKNAIIDDYKVTSQVLGLGINGKVLQIFNKRTQEKFALKMLQDCPKARREVELHWRASQCPHIVRIVDVYENLYAGRKCLLIVMECLDGGELFSRIQDRGDQAFTEREASEIMKSIGEAIQYLHSINIAHRDVKPENLLYTSKRPNAILKLTDFGFAKETTSHNSLTTPCYTPYYVAPEVLGPEKYDKSCDMWSLGVIMYILLCGYPPFYSNHGLAISPGMKTRIRMGQYEFPNPEWSEVSEEVKMLIRNLLKTEPTQRMTITEFMNHPWIMQSTKVPQTPLHTSRVLKEDKERWEDVKEEMTSALATMRVDYEQIK
In vitro cleavage by Ulp1 / SUMO hydrolase [3]: efficiently cleaved
Soluble form as fusion to SUMO ([1]; as summarised in Example III for FIG. 8): 95%
Soluble fraction of fusion protein ([1]; induced at 20° C. with 0.25 mM IPTG): 90%
Insoluble fraction of fusion protein ([1]; induction at 37° C.): more than 50%

B5: Hub1-GFP (protein)
chain: MGHHHHHHGSDSEVNQEAKPEVKPEVKPETHINLKVSDGSSEIFFKIKKTTPLRRLMEAFAKRQGKEMDSLRFLYDGIRIQADQAPEDLDMEDNDIIEAHREQIGG
Solubility of UBL-GFP fusion (soluble panel of stained gel) ([1]; 37° C., FIG. 4A): able to solublize the GFP
GFP fluorescence of soluble fraction (correct folding) [4]: able to fluoresce
